1 molecule from US20220378829A1 (CRISPR THERAPEUTICS, published 2022) can be followed below.

The assay deals with T1, CD70 on human cancer cell lines (A498, ACHN, SK-OV-3, Hs 766T, NCI-H1975, Calu-1, DU 145, SNU-1, MM.1S, HuT78) (human, UniProt P32970 1-193).
T1 sequence (looked up): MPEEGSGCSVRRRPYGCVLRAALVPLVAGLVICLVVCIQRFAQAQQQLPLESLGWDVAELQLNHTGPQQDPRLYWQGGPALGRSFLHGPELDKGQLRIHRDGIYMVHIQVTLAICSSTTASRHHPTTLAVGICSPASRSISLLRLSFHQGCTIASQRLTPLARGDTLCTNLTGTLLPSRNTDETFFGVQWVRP
Description: cell-based or functional assay.

B1: anti-CD70 CAR (CD70B scFv with 41BB), expressed on the surface of gene-edited human T cells (CTX130: TRAC-/β2M-/CD70-/anti-CD70 CAR+ T cells) (other)
chain: QVQLVQSGAEVKKPGASVKVSCKASGYTFTNYGMNWVRQAPGQGLKWMGWINTYTGEPTYADAFKGRVTMTRDTSISTAYMELSRLRSDDTAVYYCARDYGDYGMDYWGQGTTVTVSSGGGGSGGGGSGGGGSGDIVMTQSPDSLAVSLGERATINCRASKSVSTSGYSFMHWYQQKPGQPPKLLIYLASNLESGVPDRFSGSGSGTDFTLTISSLQAEDVAVYYCQHSREVPWTFGQGTKVEIKSAAAFVPVFLPAKPTTTPAPRPPTPAPTIASQPLSLRPEACRPAAGGAVHTRGLDFACDIYIWAPLAGTCGVLLLSLVITLYCNHRNRKRGRKKLLYIFKQPFMRPVQTTQEEDGCSCRFPEEEEGGCELRVKFSRSADAPAYQQGQNQLYNELNLGRREEYDVLDKRRGRDPEMGGKPRRKNPQEGLYNELQKDKMAEAYSEIGMKGERRRGKGHDGLYQGLSTATKDTYDALHMQALPPR
Turning to B1, the “cell lysis of A498 cells by TRAC-/β2M-/CD70-/anti-CD70 CAR+ T cells, T cell:A498 ratios 1:1 and 0.5:1, 24 h (Cell titer-Glo)” value was more than 90%; the “cell lysis of A498 cells by TRAC-/β2M-/anti-CD70 CAR+ T cells (2×KO), T cell:A498 ratios 1:1 and 0.5:1, 24 h (Cell titer-Glo)” value is less than 90%.
